Assay results as given in patent publication EP0659766A1.

Target: T1, IL-1 receptors expressed on murine thymoma EL4 cells (murine) (UniProt P13504)
T1 sequence (looked up): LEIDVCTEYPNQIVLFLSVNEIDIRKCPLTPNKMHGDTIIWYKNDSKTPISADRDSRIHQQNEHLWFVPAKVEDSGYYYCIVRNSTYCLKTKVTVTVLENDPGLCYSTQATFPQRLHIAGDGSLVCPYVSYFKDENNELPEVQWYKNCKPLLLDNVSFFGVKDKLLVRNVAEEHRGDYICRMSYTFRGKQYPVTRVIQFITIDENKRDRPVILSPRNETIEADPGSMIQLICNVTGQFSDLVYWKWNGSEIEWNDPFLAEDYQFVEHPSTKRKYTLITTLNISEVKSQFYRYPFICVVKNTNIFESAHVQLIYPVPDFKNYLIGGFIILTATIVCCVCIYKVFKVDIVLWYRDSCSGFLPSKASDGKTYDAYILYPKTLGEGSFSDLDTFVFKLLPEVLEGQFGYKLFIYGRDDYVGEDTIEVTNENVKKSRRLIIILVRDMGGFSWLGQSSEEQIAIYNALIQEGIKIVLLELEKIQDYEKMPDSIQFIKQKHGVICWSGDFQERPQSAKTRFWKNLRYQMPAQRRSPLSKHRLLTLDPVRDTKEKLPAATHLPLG
Experiment: binding of 70 pM human ¹²⁵I-IL-1α to 1 x 10⁶ EL4 cells, no serum

B1: recombinant human IL-1 alpha (IL-1α) (ligand, UniProt P01583 113-271, looked up)
chain: SAPFSFLSNVKYNFMRIIKYEFILNDALNQSIIRANDQYLTAAALHNLDEAVKFDMGAYKSSKDDAKITVILRISKTQLYVTAQDEDQPVLLKEMPEIPKTITGSETNLLFFWETHGTKNYFTSVAHPNLFIATKQDYWVCLAGGPPSITDFQILENQA
¹²⁵I-IL-1α bound to EL4 cells (cpm): 4520 cpm
